Laboratory results: article PMC8369199

Target: cetuximab (human)
Assay: BLI; cetuximab (20 µg/ml) immobilised on Fab2G sensors; scFv hFc4 25 to 200 nM in kinetics buffer; 1:1 Langmuir model

B1: humanized scFv hFc4 (scFv, V domains shown)
VH: EVQLLESGGGLVQPGGSLRLSCAASGFTFSSYAMNWVRQAPGKGLEFVAGINAAGSGANYAPAVKGRATISRDNSPNTVYLQMNSLRAEDTAVYYCAKGSGSCNHCGGGHGGMIDEWGQGTLVTVSS
VL: SYELMQPPSVSVSPGQTARITCSGGSSTYYGWYQQKPGQAPVTVIYWDDERPSGIPERFSGSSSGNTVTLTINGVQAEDEADYYCGGYDSSVGIFGGGTKLTVL
  Kd: 0.0205 µM
